From patent US20110059095A1 (Regeneron, published 2011) come the findings set out here.

T1: Peptide B (human PAR-2), C-terminal biotinylated (Human, not fully specified)
T1 construct: also called Peptide B C-Term
T1 peptide: SLIGKVDGTSHVTGGGGGS-biotin

T2: Peptide A (human PAR-2), N-terminal biotinylated (Human, N-terminal biotin via G4S linker)
T2 construct: also called Peptide A N-Term
T2 peptide: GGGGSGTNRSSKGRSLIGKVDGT

T3: Peptide A (human PAR-2), unbiotinylated (Human)
T3 construct: also called Peptide A No Biotin
T3 peptide: GTNRSSKGRSLIGKVDGT

T4: Peptide B (human PAR-2), N-terminal biotinylated (Human)
T4 construct: also called Peptide B N-Term
T4 peptide: Biotin-GGGGSSLIGKVDGTSHVTG

B1: H4H588N (antibody, human IgG4, V domains shown)
VH: EVQLLESGGGLVQPGGSLRLSCAASGFTFSSYAMTWVRQAPGKGLYWVSAISGGRGSAYYADSVKGRFTISRDNSKNTLYLQMNSLRAEDTAVYYCAKEGDSGYDLAYWGRGTLVTVSS
VL: DIQMTQSPSSLSASVGDRVTITCRARQGISNNLAWLQQKPGKAPKSLIYAASSLQSGIPSKFSGSGSGTYFTLTISSLQPEDFATYYCQQYKSSPLTFGGGTKVEIK
notes: also called H2M588N variable regions
B2: H4H584P (antibody, human IgG4, V domains shown)
VH: QVQLVESGGGVVQPGRSLRLSCVASGFTFSRYGMHWVRQAPGKGLEWVVVISYDGINKYYADSVKGRFTISRDNSKNTVYLQMNSLRAEDTAVYYCAKGDFWSGYFDYWGQGTLVTVSS
VL: DIVMTQTPLSSPVTLGQPASISCRSSQSLVHSDGNTYLSWLHQRPGQPPRLLIYKISNRFSGVPDRFSGSGAGTDFTLQISRVEAEDVGIYYCMQATQFPTFGGGTKVEIK
notes: also called H1H584P variable regions
B3: H4H585P (antibody, human IgG4, V domains shown)
VH: B2 VH with V48L, V49I
VL: B2 VL with A96G
notes: also called H1H585P variable regions
B4: H4H579P (antibody, human IgG4, V domains shown)
VH: B2 VH with V48L, V49I, A92G
VL: B2 VL with A96G
notes: also called H1H579P variable regions
B5: H4H581P (antibody, human IgG4, V domains shown)
VH: B2 VH with M34I, V49I
VL: B2 VL
notes: also called mAb H4H581P; H1H581P variable regions

Where a chain is given by its changes, count along the chain named. Where no end group is shown, it is not given here. The star is where a group is joined. Biotin = O=C1N[C@H]2[C@H](CS[C@H]2CCCCC(=O)*)N1 A value given as a limit tells only on which side of the number the result lay.

By Kd is commonly meant the constant that tells how readily two partners part at equilibrium. As a reminder, the EC50 is the concentration giving half of the maximal effect.

T6 sequence (peptide, as listed by the source): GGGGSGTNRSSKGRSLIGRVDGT
T7 sequence (P55085 26-397 G138A limits assumed): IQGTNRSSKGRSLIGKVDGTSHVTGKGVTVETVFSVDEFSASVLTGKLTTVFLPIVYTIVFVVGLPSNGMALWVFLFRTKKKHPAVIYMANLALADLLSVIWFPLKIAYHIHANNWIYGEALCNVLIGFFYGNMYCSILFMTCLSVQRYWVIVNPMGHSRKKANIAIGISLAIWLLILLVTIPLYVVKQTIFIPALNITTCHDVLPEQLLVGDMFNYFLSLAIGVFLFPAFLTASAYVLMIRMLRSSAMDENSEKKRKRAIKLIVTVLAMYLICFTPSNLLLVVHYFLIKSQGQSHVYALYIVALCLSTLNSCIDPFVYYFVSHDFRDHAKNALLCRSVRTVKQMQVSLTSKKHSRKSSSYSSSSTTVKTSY

The first test addresses T5, Peptide A (human PAR-2), C-terminal biotinylated (Human, C-terminal biotin via G4S linker).
T5 construct: also called Peptide A C-Term
The experiment in a line: SPR, peptide immobilized. In a few lines:
(§1)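 Neutravidin was amine-coupled to a C1 or CM5 chip, and N- or C-terminal biotinylated peptide was captured at low density (<1RU). Purified antibody at 5–100 μg/ml was injected at 50 μl/min for 300 s, with binding and dissociation monitored in real time at 25° C. KD was derived from surface kinetics.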
B1 registered a Kd of 0.517 nM and a T1/2 of 141 min.

B2: the Kd stood at 0.688 nM and the T1/2 came to 55 min.

On to B3, for which binding was put at a Kd of 0.151 nM and the T1/2 was found to be 493 min.

On to B4, for which the Kd was 0.143 nM and the T1/2 was 479 min.

In turn, B5 had a Kd of 0.237 nM and a T1/2 of 134 min.

The next test addresses T1, Peptide B (human PAR-2), C-terminal …. The test is described as follows: SPR, peptide immobilized. The procedure, abridged:
as §1
On the technique in general: In SPR one partner is held on a chip, and binding of the other changes the refractive index at the surface.
Molecule B1 had a Kd of 1.03 nM and a T1/2 of 70 min.

As to B2, the Kd is 1.66 nM and the T1/2 was determined as 15 min.

With B3, the Kd was 0.376 nM and the T1/2 was found to be 123 min.

Molecule B4 showed a Kd of 0.453 nM and a T1/2 of 96 min.

Molecule B5 yielded a Kd of 0.346 nM and a T1/2 of 49 min.

Another test has as its target T5, Peptide A (human PAR-2), C-terminal …. The experiment in a line: peptide ELISA titration. As for the experimental part: (§2) Anti-PAR-2 antibodies were tested for their ability to bind to the PAR-2 peptides. Various PAR-2 Peptides (Table 3) were coated onto 96-well plates at a concentration of 2 μg/ml and incubated overnight followed by blocking in a suitable blocking agent for one hour. […] Purified anti-PAR-2 antibodies were added to the plate coated with PAR-2 peptides to a final concentration ranging from 0.2 to 2.0 μg/ml and incubated for one hour at room temperature. Detection of bound antibodies was determined with Horse-Radish Peroxidase (HRP) conjugated anti-mouse or human IgG (Jackson Immuno Research Lab, West Grove, Pa.) and developed by standard colorimetric response using tetramethylbenzidine (TMB) substrate. Absorbance was read at OD₄₅₀ for 0.1 second.
(§3) In another experiment, selected anti-PAR-2 antibodies cloned onto human IgG4 were tested for binding to unbiotinylated and biotinylated forms of PAR-2 peptides (Peptides A, E, F and G; as described above). […] Absorbance values at 450 nm were analyzed using a sigmoidal dose-response model in GraphPad Prism (GraphPad Software, Inc., La Jolla, Calif.) and EC₅₀ values were reported (Table 9). EC₅₀ values are defined as the antibody concentration required to achieve 50% maximal binding to PAR-2 peptide.
B1: it took 0.016 nM to reach a half-maximal effect (EC50).

B2 showed an EC50 of 0.015 nM.

For B3, the EC50 was determined as 0.021 nM.

For the molecule B4, the response was half-maximal at 0.076 nM (EC50).

Turning to B5, the EC50 was determined as 0.028 nM.

A further test concerns the target T2, Peptide A (human PAR-2), N-terminal …. The test is described as follows: peptide ELISA titration. The method, then: as §2, §3
In general terms: In an ELISA, binding on a coated surface is turned into a signal by an enzyme label.
For the molecule B1, the EC50 was found to be 0.019 nM.

As to B2, the EC50 came out at 0.019 nM.

Turning to B3, the EC50 was 0.026 nM.

Regarding B4, the midpoint of the response, the EC50, lay at 0.077 nM.

The molecule B5 had a concentration for a half-maximal effect (EC50) of 0.02 nM.

A further test has as its target T6, Peptide F (monkey PAR-2), N-terminal biotinylated (Monkey (Macaca mulatta), N-terminal biotin via G4S linker).
T6 construct: also called Peptide F N-Term
The experiment in a line: peptide ELISA titration. The method, then:
as §2, §3
Molecule B1 came in with an EC50 of 0.012 nM.

The molecule B2 yielded an EC50 of 0.012 nM.

For the molecule B3, it took 0.017 nM to reach a half-maximal effect (EC50).

Take B4: the response was half-maximal at 0.061 nM (EC50).

B5 showed an EC50 of 0.02 nM.

A further test addresses T3, Peptide A (human PAR-2), unbiotinylated. The experiment in a line: peptide ELISA titration. As for the experimental part:
as §2, §3
On to B1, for which the EC50 came out at 0.01 nM.

B2 yielded an EC50 of 0.012 nM.

B3 yielded an EC50 of 0.017 nM.

Turning to B4, the response was half-maximal at 0.038 nM (EC50).

On to B5, for which a half-maximal response (EC50) required 0.012 nM.

A further test addresses T7, full length human PAR-2 (human, UniProt P55085 26-397). The experiment in a line: cell-based or functional assay.
For the molecule B1, the “IC50, NF-kB-luciferase, 20 nM Trypsin” value was determined as 16.9 nM.

In the case of B2, the “IC50, NF-kB-luciferase, 20 nM Trypsin” value is 5.6 nM.

Take B3: the “IC50, NF-kB-luciferase, 20 nM Trypsin” value was found to be 8.9 nM.

In the case of B4, the “IC50, NF-kB-luciferase, 20 nM Trypsin” value amounted to 4.1 nM.

For the molecule B5, the “IC50, NF-kB-luciferase, 20 nM Trypsin” value is 1.1 nM.

For a further test, the target named is T3, Peptide A (human PAR-2), unbiotinylated. The test is described as follows: SPR, antibody captured. The method, then:
(§4) Equilibrium dissociation constants (KD values) for antigen binding to selected purified PAR-2 antibodies were determined by surface kinetics using a real-time surface plasmon resonance biosensor assay. Antibody was captured on either a rabbit anti-mouse IgG polyclonal antibody (GE Healthcare, Piscataway, N.J.) surface or a goat anti-human IgG polyclonal antibody (Jackson Immuno Research Lab, West Grove, Pa.) surface created through direct amine chemical coupling to a BIACORE™ CM5 sensor chip to form a captured antibody surface. […] Antigen-antibody binding and dissociation were monitored in real time at room temperature. Kinetic analysis was performed to calculate KD and half-life of antigen/antibody complex dissociation (Table 10). For those antibodies where no T_{1/2} value is shown, steady state analysis was used to calculate the KD value. NB: no binding observed under current experimental conditions. ND: not determined.
B1 gave a Kd of 4.95 nM and a T1/2 of 25.1 min.

B2 registered a Kd of 22 nM and a T1/2 of 0.73 min.

B3 had a Kd of 8.78 nM and a T1/2 of 3.7 min.

In turn, B4 registered a Kd of 15 nM and a T1/2 of 4.1 min.

Molecule B5 had a Kd of 9.44 nM and a T1/2 of 1.4 min.

The next test addresses T2, Peptide A (human PAR-2), N-terminal …. The experiment in a line: SPR, peptide immobilized.
In the case of B1, binding was characterised by a dissociation constant (Kd) of 1.05 nM and the T1/2 is 189 min.

In turn, B2 came in with a Kd of 0.525 nM and a T1/2 of 43 min.

B3 yielded a Kd of 1.69 nM and a T1/2 of 48 min.

On to B4, for which binding was put at a Kd of 1.61 nM and the T1/2 is 46 min.

B5 gave a Kd of 0.498 nM and a T1/2 of 41 min.

The target in the next test is T6, Peptide F (monkey PAR-2), N-terminal …. The experiment in a line: SPR, peptide immobilized.
On to B1, for which binding was put at a Kd of 1.81 nM and the T1/2 came out at 94 min.

In turn, B2 displayed a Kd of 0.565 nM and a T1/2 of 40 min.

The molecule B3 returned a Kd of 0.899 nM and a T1/2 of 66 min.

B4 displayed a Kd of 0.796 nM and a T1/2 of 70 min.

For B5, binding was characterised by a dissociation constant (Kd) of 0.272 nM and the T1/2 is 78 min.

The target of a further test is T4, Peptide B (human PAR-2), N-terminal …. The test is described as follows: SPR, peptide immobilized.
In turn, B1 yielded a dissociation constant (Kd) of 0.0272 nM and a T1/2 of over 1160 min.

In the case of B2, the Kd is 3.2 nM and the T1/2 worked out at 30 min.

For the molecule B3, the Kd worked out at 5.41 nM and the T1/2 amounted to 63 min.

Turning to B4, the Kd was 5.44 nM and the T1/2 came out at 55 min.

Take B5: the Kd worked out at 2.72 nM and the T1/2 was 38 min.

The next test addresses T6, Peptide F (monkey PAR-2), N-terminal …. The test is described as follows: SPR, antibody captured. The method, then:
as §4
In turn, B1 displayed a Kd of 10.8 nM and a T1/2 of 20 min.

Regarding B2, the Kd was found to be 93.3 nM and the T1/2 was found to be 0.23 min.

Regarding B3, binding was characterised by a dissociation constant (Kd) of 46.2 nM and the T1/2 stood at 2 min.

B4 gave a Kd of 49.4 nM and a T1/2 of 2 min.

B5 had a Kd of 36.6 nM and a T1/2 of 0.53 min.

Another test addresses T7, full length human PAR-2. The experiment in a line: MSD cell binding. As for the experimental part: HEK293 cells were transfected with an NF-κB-luciferase-IRES-eGFP reporter plasmid. […] A clonal cell line, named D9, having low background levels of luciferase activity and high levels of eGFP when induced with IL-1β was made by a series of successive sorts of cell populations using flow cytometry. The 293/D9 cell line was then separately transfected with human PAR-2 or mouse PAR-2 to create the stable cell lines 293/D9/h PAR-2rec and 293/D9/m PAR-2rec, respectively.
Cells were plated on MSD high-bind 96 well plates at a density of 4×10⁴ cells/well in PBS and incubated for one hour at room temperature. Cells were then blocked in PBS with 2% BSA and incubated at room temperature for one hour. Anti-PAR-2 antibodies (ranging from 100 nM to 0.098 nM) were serially diluted two-fold in PBS with 0.5% BSA and incubated with the cells for one hour at room temperature followed by washing in PBS with 0.5% BSA. Sulfo-tagged anti-human IgG antibody (MSD) at a concentration of 0.1 μg/ml was then added to the cell/antibody mixture and incubated at room temperature for an additional hour. After another wash, a 1× non-surfactant containing read buffer was added and electro-chemiluminescent signal was read on the MSD Sector Imager. Signal of antibody binding to 293/D9 cells was subtracted from signal to 293/D9/hPAR-2rec or 293/D9/mPAR-2rec cells. Subtracted data were analyzed using a sigmoidal dose-response model in GraphPad Prism and EC₅₀ and Bₘₐₓ values were reported (Table 18). EC₅₀ values are defined as the antibody concentration required to achieve 50% maximal binding (Bₘₐₓ) to cells.
In turn, B1 registered a Bmax of 27500 MSD Unit and an EC50 of 5.95 nM.

Molecule B2 registered a Bmax of 26000 MSD Unit and an EC50 of 1.45 nM.

As for B3, the Bmax is 22500 MSD Unit and the EC50 stood at 1.95 nM.

With B4, the Bmax was 25000 MSD Unit and the EC50 stood at 1.86 nM.

B5 yielded a Bmax of 28200 MSD Unit and an EC50 of 0.652 nM.
